Data: US12545899B2, “Luciferase enzymes for use with thermostable luciferins in bioluminescent assays” (Promega Corporation, priority 2018, dated 2026)

Columns and labels:
[1] = Differential scanning fluorimetry (DSF) analysis; type: physicochemical; set-up: key to DSF Tm: melting temperature in °C (heated 30-95 °C at 1 °C/min); settings: for DSF Tm: Table 7A; for DSF Tm (° C.): Table 9B
Experimental: (§1) To conduct the experiment, Sypro Orange (5000×) was diluted in water to 3× and combined with enzymes stored in 50 mM HEPES pH 7.5, 100 mM NaCl, 2 mM EDTA to a final concentration of 5×. Fluorescence was read at 60 second intervals as the reactions were heated at 1° C. per minute from 30-95° C. The change in fluorescence at each minute was calculated and plotted for each temperature in the range.
as §1, with “The luciferase enzyme variants generated were also evaluated using DSF analysis as shown in the representative results provided in Tables 7A and 7B above. To” for “To”, “the experiments,” for “the experiment,”, “in 20” for “in 50”, “7.5, 200” for “7.5, 100”, “NaCl, 1” for “NaCl, 2”

[2] = Brightness of additional luciferase enzyme variants with CS0333; type: biochemical; settings: Table 7A, 1 mM CS0333; for Fold-improvement over ATG3707, CS0333 BG: Bright-Glo buffer; for Fold-improvement over ATG3707, CS0333 DR: Detection Reagent buffer
Experimental: (§2) Additional luciferase enzyme variants were generated and evaluated for their stability and activity. To evaluate the additional luciferase enzyme variants, 0.005 mg/ml luciferase enzyme variant was mixed with 1 mM ATP+1 mM substrate in either Bright-Glo™ (BG) or Detection Reagent (DR) buffers. […] (Table 7A is colored according to their relative luminescence values within each column across a red to green color spectrum with the lowest values colored red and the highest values colored green.)

[3] = Brightness of additional luciferase enzyme variants with CS0280; type: biochemical; settings: Table 7A, 1 mM CS0280; for Fold-improvement over ATG3707, CS0280 BG: Bright-Glo buffer; for Fold-improvement over ATG3707, CS0280 DR: Detection Reagent buffer
Experimental: as §2

Molecule	transition melting temperature by DSF ([1]; compared with Ppe variant (SEQ ID NO: 1), FIG. 29)	Fold-improvement over ATG3707, CS0333 BG [2]	Fold-improvement over ATG3707, CS0333 DR [2]	DSF Tm [1]	Fold-improvement over ATG3707, CS0280 BG [3]	Fold-improvement over ATG3707, CS0280 DR [3]	DSF Tm (° C.) [1] [°C]
ATG-2877: SEQ ID NO: 5; H244W (protein) MADKNILYGPEPFYPLEDGTAGEQMFDALSRYAAIPGCIALTNAHTKENVLYEEFLKLSCRLAESFKKYGLKQNDTIAVCSENSLQFFLPVIASLYLGIIVAPVNDKYIERELIHSLGIVKPRIVFCSKNTFQKVLNVKSKLKSIETIIILDLNEDLGGYQCLNNFISQNSDSNLDVKKFKPYSFNRDDQVASIMFSSGTTGLPKGVMLTHKNIVARFSIAKDPTFGNAINPTSAILTVIPFHWGFGMMTTLGYFTCGFRVVLMHTFEEKLFLQSLQDYKVESTLLVPTLMAFLAKSALVEKYDLSHLKEIASGGAPLSKEIGEMVKKRFKLNFVRQGYGLTETTSAVLITPKGDAKPGSTGKIVPLHAVKVVDPTTGKILGPNEPGELYFKGPMIMKGYYNNEEATKAIIDNDGWLRSGDIAYYDNDGHFYIVDRLKSLIKYKGYQVAPAEIEGILLQHPYIVDAGVTGIPDEAAGELPAAGVVVQTGKYLNEQIVQDYVASQVSTAKWLRGGVKFLDEIPKGSTGKIDRKVLRQMLEKHTNGHHHHHHHH	does not alter the transition melting temperature						
C7573G10: SEQ ID NO: 69; H244W+T344A+I396K+S193A+N228D+L305F+S306P+I109V+A316M (protein) MADKNILYGPEPFYPLEDGTAGEQMFDALSRYAAIPGCIALTNAHTKENVLYEEFLKLSCRLAESFKKYGLKQNDTIAVCSENSLQFFLPVIASLYLGIIVAPVNDKYIERELIHSLGIVKPRIVFCSKNTFQKVLNVKSKLKSIETIIILDLNEDLGGYQCLNNFISQNSDSNLDVKKFKPYSFNRDDQVAAIMFSSGTTGLPKGVMLTHKNIVARFSIAKDPTFGNAINPTSAILTVIPFHHGFGMMTTLGYFTCGFRVVLMHTFEEKLFLQSLQDYKVESTLLVPTLMAFLAKSALVEKYDLSHLKEIASGGAPLSKEIGEMVKKRFKLNFVRQGYGLTETTSAVLITPKGDAKPGSTGKIVPLHAVKVVDPTTGKILGPNEPGELYFKGPMIMKGYYNNEEATKAIIDNDGWLRSGDIAYYDNDGHFYIVDRLKSLIKYKGYQVAPAEIEGILLQHPYIVDAGVTGIPDEAAGELPAAGVVVQTGKYLNEQIVQDYVASQVSTAKWLRGGVKFLDEIPKGSTGKIDRKVLRQMLEKHTNGHHHHHHHH		2.81	2.09	62	14.12	19.49	
C7612E10: SEQ ID NO: 68; H244W+T344A+I396K+S193A+N228D+L305F+S306P+I109V+V348I (protein) MADKNILYGPEPFYPLEDGTAGEQMFDALSRYAAIPGCIALTNAHTKENVLYEEFLKLSCRLAESFKKYGLKQNDTIAVCSENSLQFFLPVIASLYLGIIVAPVNDKYVERELIHSLGIVKPRIVFCSKNTFQKVLNVKSKLKSIETIIILDLNEDLGGYQCLNNFISQNSDSNLDVKKFKPYSFNRDDQVASIMFSSGTTGLPKGVMLTHKNIVARFSIAKDPTFGNAINPTSAILTVIPFHHGFGMMTTLGYFTCGFRVVLMHTFEEKLFLQSLQDYKVESTLLVPTLMAFLAKSALVEKYDLSHLKEIASGGAPLSKEIGEMVKKRFKLNFVRQGYGLTETTSAVLITPKGDAKPGSTGKIVPLHAVKVVDPTTGKILGPNEPGELYFKGPMIMKGYYNNEEATKAIIDNDGWLRSGDIAYYDNDGHFYIVDRLKSLIKYKGYQVAPAEIEGILLQHPYIVDAGVTGIPDEAAGELPAAGVVVQTGKYLNEQIVQDYVASQVSTAKWLRGGVKFLDEIPKGSTGKIDRKVLRQMLEKHTNGHHHHHHHH		2.28	2.27	63	2.22	2.02	
C7584F2: SEQ ID NO: 73; H244W+T344A+I396K+S193A+N228D+L305F+S306P+I109V+A344I (protein) MADKNILYGPEPFYPLEDGTAGEQMFDALSRYAAIPGCIALTNAHTKENVLYEEFLKLSCRLAESFKKYGLKQNDTIAVCSENSLQFFLPVIASLYLGIIVAPVNDKYIERELIHSLGIVKPRIVFCSKNTFQKVLNVKSKLKSIETIIILDLNEDLGGYQCLNNFISQNSDSNLDVKKFKPYSFNRDDQVASIMFSSGTTGLPKGVMLTHKNIVARFSIAKDPTFGNAINPTSAILTVIPFHHGFGMMTTLGYFTCGFRVVLMHTFEEKLFLQSLQDYKVESTLLVPTLMAFLAKSALVEKYDLSHLKEIASGGAPLSKEIGEMVKKRFKLNFVRQGYGLTEATSAVLITPKGDAKPGSTGKIVPLHAVKVVDPTTGKILGPNEPGELYFKGPMIMKGYYNNEEATKAIIDNDGWLRSGDIAYYDNDGHFYIVDRLKSLIKYKGYQVAPAEIEGILLQHPYIVDAGVTGIPDEAAGELPAAGVVVQTGKYLNEQIVQDYVASQVSTAKWLRGGVKFLDEIPKGSTGKIDRKVLRQMLEKHTNGHHHHHHHH		2.35	2.15	65	2.78	2.68	
C7579E3: SEQ ID NO: 71; H244W+T344A+I396K+S193A+N228D+L305F+S306P+I109V+Y339M (protein) MADKNILYGPEPFYPLEDGTAGEQMFDALSRYAAIPGCIALTNAHTKENVLYEEFLKLSCRLAESFKKYGLKQNDTIAVCSENSLQFFLPVIASLYLGIIVAPVNDKYIERELIHSLGIVKPRIVFCSKNTFQKVLNVKSKLKSIETIIILDLNEDLGGYQCLNNFISQNSDSNLDVKKFKPYSFNRDDQVASIMFSSGTTGLPKGVMLTHKNIVARFSIAKDPTFGNAINPTSAILTVIPFHHGFGMMTTLGYFTCGFRVVLMHTFEEKLFLQSLQDYKVESTLLVPTLMAFLAKSALVEKYDLPHLKEIASGGAPLSKEIGEMVKKRFKLNFVRQGYGLTETTSAVLITPKGDAKPGSTGKIVPLHAVKVVDPTTGKILGPNEPGELYFKGPMIMKGYYNNEEATKAIIDNDGWLRSGDIAYYDNDGHFYIVDRLKSLIKYKGYQVAPAEIEGILLQHPYIVDAGVTGIPDEAAGELPAAGVVVQTGKYLNEQIVQDYVASQVSTAKWLRGGVKFLDEIPKGSTGKIDRKVLRQMLEKHTNGHHHHHHHH		1.19	1.96	55	3.26	3.63	
MK0136: SEQ ID NO: 104; H244W+S193A+N228D+L305F+S306P+I109V+C38R+F55I+Y108F+A316W+Y339M (protein) MADKNILYGPEPFYPLEDGTAGEQMFDALSRYAAIPGRIALTNAHTKENVLYEEILKLSCRLAESFKKYGLKQNDTIAVCSENSLQFFLPVIASLYLGIIVAPVNDKFVERELIHSLGIVKPRIVFCSKNTFQKVLNVKSKLKSIETIIILDLNEDLGGYQCLNNFISQNSDSNLDVKKFKPYSFNRDDQVAAIMFSSGTTGLPKGVMLTHKNIVARFSIAKDPTFGDAINPTSAILTVIPFHWGFGMMTTLGYFTCGFRVVLMHTFEEKLFLQSLQDYKVESTLLVPTLMAFLAKSALVEKYDFPHLKEIASGGWPLSKEIGEMVKKRFKLNFVRQGMGLSETTSAILITPKGDAKPGSTGKIVPLHAVKVVDPTTGKILGPNEPGELYFKGPMIMKGYYNNEEATKAIIDNDGWLRSGDIAYYDNDGHFYIVDRLKSLIKYKGYQVAPAEIEGILLQHPYIVDAGVTGIPDEAAGELPAAGVVVQTGKYLNEQIVQDYVASQVSTAKWLRGGVKFLDEIPKGSTGKIDRKVLRQMLEKHTNGHHHHHHHH							71
MK0138: SEQ ID NO: 106; H244W+S193A+N228D+L305F+S306P+I109V+C38R+F55I+Y108F+A316W+Y339M+T3441+I396K (protein) MADKNILYGPEPFYPLEDGTAGEQMFDALSRYAAIPGRIALTNAHTKENVLYEEILKLSCRLAESFKKYGLKQNDTIAVCSENSLQFFLPVIASLYLGIIVAPVNDKYVERELIHSLGIVQPRIVFCSKNTFQKVLNVKSKLKSIETIIILDLNEDLGGYQCLNNFISQNSDSNLDVKKFKPYSFNRDDQVAAIMFSSGTTGLPKGVMLTHKNIVARFSIAKDPTFGDAINPTSAILTVIPFHWGFGMMTTLGYFTCGFRVVLMHTFEEKLFLQSLQDYKVESTLLVPTLMAFLAKSALVEKYDFPHLKEIASGGWPLSKEIGEMVKKRFKLNFVRQGMGLTEITSAILITPKGDAKPGSTGKIVPLHAVKVVDPTTGKILGPNEPGELYFKGPMKMKGYYNNEEATKAIIDNDGWLRSGDIAYYDNDGHFYIVDRLKSLIKYKGYQVAPAEIEGILLQHPYIVDAGVTGIPDEAAGELPAAGVVVQTGKYLNEQIVQDYVASQVSTAKWLRGGVKFLDEIPKGSTGKIDRKVLRQMLEKHTNGHHHHHHHH							58
